Laboratory results as given in PMC5454378, “Histone deacetylase 10 structure and molecular function as a polyamine deacetylase” (Nature Communications, 2017).

Key:
Experiment in all cases: purified protein, by the assay type
[1] = substrate: CC(=O)NCCCC[C@H](NC(=O)[C@H](C)NC(=O)CNC(C)=O)C(=O)N[C@@H](CC(N)=O)C(=O)N[C@@H](CC(C)C)C(=O)N[C@@H](CCC(N)=O)C(N)=O; design: discontinuous LC-MS deacetylation assay, dansylated product quantified, steady-state kinetics; details: 50.0 °C
Protocol: (§1) To study steady-state kinetics with non-fluorogenic peptide substrates and acetylpolyamines, a discontinuous LC–MS was employed based on the protocol of assaying nonfluorogenic acetyllysine peptide substrates for HDAC6 (ref. [17]). Assays were performed in triplicate. Briefly, 5 μl of enzyme (0.050–20 μM) in HEPES buffer (20 mM HEPES (pH 7.5), 100 mM NaCl, 5 mM KCl, 1 mM MgCl2) was added to 35 μl of substrate solution to initiate the reaction. […] The deacetylation products were derivatized with dansyl chloride at 50 °C for 2 hrs. The deacetylation products were detected by LC–MS using a Waters SQD equipped with an Acquity UPLC (Waters, Milford, MA, USA) and quantified by using the standard curves generated from the mass signals of the corresponding deacetylated polyamines and peptides. Inhibition of HDAC10 activity was measured by using 0.49 μM zHDAC10 with 192 μM N^8-acetylspermidine. Data were analysed by logistic regression for IC50 determination and the inhibition constant Ki was calculated based on the Cheng-Prusoff equation, Ki=IC50 / (1+[S]/KM)[45]. Assays were performed in triplicate at room temperature.

[2] = substrate: CC(=O)NCCCCCCCCN; design: steady-state kinetics of acetylpolyamine deacetylation, discontinuous LC-MS after dansyl chloride derivatization
Protocol: (§2) To study steady-state kinetics with non-fluorogenic peptide substrates and acetylpolyamines, a discontinuous LC–MS was employed based on the protocol of assaying nonfluorogenic acetyllysine peptide substrates for HDAC6 (ref. [17]). Assays were performed in triplicate. Briefly, 5 μl of enzyme (0.050–20 μM) in HEPES buffer (20 mM HEPES (pH 7.5), 100 mM NaCl, 5 mM KCl, 1 mM MgCl2) was added to 35 μl of substrate solution to initiate the reaction. After incubation for 15–60 min at room temperature, the reaction was quenched by addition of 50 μl of 20 mM dansyl chloride dissolved in acetonitrile followed by 10 μl of NaHCO3 (1.6 M, pH 10.0). The deacetylation products were derivatized with dansyl chloride at 50 °C for 2 hrs. The deacetylation products were detected by LC–MS using a Waters SQD equipped with an Acquity UPLC (Waters, Milford, MA, USA) and quantified by using the standard curves generated from the mass signals of the corresponding deacetylated polyamines and peptides. Inhibition of HDAC10 activity was measured by using 0.49 μM zHDAC10 with 192 μM N^8-acetylspermidine. Data were analysed by logistic regression for IC50 determination and the inhibition constant Ki was calculated based on the Cheng-Prusoff equation, Ki=IC50 / (1+[S]/KM)[45]. Assays were performed in triplicate at room temperature. We next tested the PDAC activity of hHDAC10 and zHDAC10 against several polyamine substrates using the LC–MS assay (Fig. 2, Supplementary Fig. 3 and Supplementary Table 1). […] For hHDAC10 and zHDAC10, kcat/KM=2,900±200 and 4,600±300 M^−1 s^−1, respectively; in comparison, N^1-acetylspermidine was a poor substrate with kcat/KM=24±5 and 7±2 M^−1 s^−1, respectively. Substrate specificity trends observed for zHDAC10 and hHDAC10 matched those of the previously reported mammalian N^8-acetylspermidine deacetylase activity. […] As a negative control, we examined the N^8-acetylspermidine deacetylase activity of human and zebrafish HDAC6 (ref. [17]). HDAC6 preferentially catalyses the deacetylation of the peptide substrate RGK(ac)-AMC with a catalytic efficiency >100-fold greater than that for the deacetylation of N^8-acetylspermidine. Therefore, HDAC6 is clearly an acetyllysine deacetylase and HDAC10 is an N^8-acetylspermidine deacetylase. It is notable that the molecular function of HDAC10 coincides with the cellular function of the cytosolic PDAC indicated in Fig. 1a.

[3] = substrate: CC(=O)NCCCCCN; design: steady-state kinetics of acetylpolyamine deacetylation, discontinuous LC-MS after dansyl chloride derivatization
Protocol: as §2

[4] = substrate: CC(=O)NCCCCN; design: steady-state kinetics of acetylpolyamine deacetylation, discontinuous LC-MS after dansyl chloride derivatization
Protocol: as §2

[5] = substrate: CC(=O)NCCCCNCCCN; design: steady-state kinetics of acetylpolyamine deacetylation, discontinuous LC-MS after dansyl chloride derivatization
Protocol: as §2

[6] = substrate: CC(=O)NCCCCNCCCNC(C)=O; design: steady-state kinetics of acetylpolyamine deacetylation, discontinuous LC-MS after dansyl chloride derivatization
Protocol: as §2

[7] = substrate: CC(=O)NCCCNCCCCNCCCN; design: steady-state kinetics of acetylpolyamine deacetylation, discontinuous LC-MS after dansyl chloride derivatization
Protocol: as §2

[8] = substrate: CC(=O)NCCCC[C@H](NC(=O)[C@H](C)NC(C)=O)C(=O)N[C@@H](C)C(N)=O; design: discontinuous LC-MS deacetylation assay, dansylated product quantified, steady-state kinetics; details: 50.0 °C
Protocol: as §1

[9] = substrate: CC(=O)NCCCC[C@H](NC(C)=O)C(N)=O; design: discontinuous LC-MS deacetylation assay, dansylated product quantified, steady-state kinetics; details: 50.0 °C
Protocol: as §1

[10] = substrate: CC(=O)NCCCC[C@H](NC(=O)[C@H](C)NC(=O)CNC(C)=O)C(=O)Nc1ccc2c(C)cc(=O)oc2c1; design: fluorogenic AMC-conjugated acetyllysine peptide deacetylation, steady-state kinetics
From the text: To determine steady-state kinetic parameters for the hydrolysis of a variety of acetylpolyamine and acetyllysine substrates, we prepared full-length recombinant HDAC10 from human (H. sapiens, hHDAC10) and zebrafish (D. rerio, zHDAC10). The CDs of these orthologues are highly similar based on 63%/79% sequence identity/similarity; only full-length constructs yielded soluble proteins. We first assayed the lysine deacetylase activity of these constructs against two commercially available aminomethylcoumarin (AMC)-conjugated fluorogenic acetyllysine peptides, GAK(ac)-AMC and RGK(ac)-AMC (molecular structures of all substrates are shown in Supplementary Fig. 2). […] These measurements were consistent with earlier studies reporting that HDAC10 activity was not measurable using fluorogenic peptide substrates. We also tested activity with 11 non-fluorogenic acetyllysine substrates using a […] chromatography–mass spectrometry (LC–MS)-based discontinuous assay[17] to avoid potential steric clashes that might occur with the bulky AMC group. These substrates included K(ac)NL and GAK(ac)NLQ, which mimic the peptide segment containing K73 in the proposed HDAC10 substrate MutS homologue 2 (MSH2)[22]. Again, we observed no or very low catalytic activity (Fig. 2 and Supplementary Table 1). In comparison with its closest relative, the cytosolic isozyme HDAC6 (ref. [17]), HDAC10 was clearly not an efficient lysine deacetylase.

B1: zHDAC6 CD2 (Danio rerio) (protein)
chain: MDAVPDTKGSSGPPRGTPETKNNKKNLQEARRKGRMDRSKAEEEMSNELQNLDVQGKSKATGTGLVYVDAFTRFHCLWDASHPECPARVSTVMEMLETEGLLGRCVQVEARAVTEDELLLVHTKEYVELMKSTQNMTEEELKTLAEKYDSVYLHPGFFSSACLSVGSVLQLVDKVMTSQLRNGFSINRPPGHHAQADKMNGFCMFNNLAIAARYAQKRHRVQRVLIVDWDVHHGQGIQYIFEEDPSVLYFSVHRYEDGSFWPHLKESDSSSVGSGAGQGYNINLPWNKVGMESGDYITAFQQLLLPVAYEFQPQLVLVAAGFDAVIGDPKGGMQVSPECFSILTHMLKGVAQGRLVLALEGGYNLQSTAEGVCASMRSLLGDPCPHLPSSGAPCESALKSISKTISDLYPFWKSLQTFEGGPLSEVSPLPAPVCAEVKVSSPITGLVYDQRMMLHHNMWDSHHPELPQRISRIFSRHEELRLLSRCHRIPARLATEEELALCHSSKHISIIKSSEHMKPRDLNRLGDEYNSIFISNESYTCALLAAGSCFNSAQAILTGQVRNAVAIVRPPGHHAEKDTACGFCFFNTAALTARYAQSITRESLRVLIVDWDVHHGNGTQHIFEEDDSVLYISLHRYEDGAFFPNSEDANYDKVGLGKGRGYNVNIPWNGGKMGDPEYMAAFHHLVMPIAREFAPELVLVSAGFDAARGDPLGGFQVTPEGYAHLTHQLMSLAAGRVLIILEGGYNLTSISESMSMCTSMLLGDSPPSLDHLTPLKTSATVSINNVLRAHAPFWSSLRVNIPESLRLSLPSPKPKGKCTPGGKGKKSPRQSTPSQSPGQATHRPDQSGFDELTADLLSLNLNTSTSSNTSPESVAVGGARRKVKPNTHRVSAGLESESPLKLNPEKAGAGDDTDVKAETPNRSISEPVVTCDSSAVKDQESLVLEAAGGNTVQSVLERVFGAQATDVDTMYVVDPLPWCPHLESVRPVPAGGIDVFQPCEECGGEAENWICLFCYKVLCGRYVNQHMVTHGQESGHPVVLSFADLSVWCYACESYVHNKVLHEAKNAAHLVKFGEGIHPFN
notes: catalytic domain 2
For B1, the Km [1] was 150 ± 20 µM, the kcat [1] was 1.26 ± 0.07 s⁻¹ and the kcat/Km [1] was 8300 M⁻¹ s⁻¹.

B2: hHDAC10 (Homo sapiens) (protein)
chain: GTALVYHEDMTATRLLWDDPECEIERPERLTAALDRLRQRGLEQRCLRLSAREASEEELGLVHSPEYVSLVRETQVLGKEELQALSGQFDAIYFHPSTFHCARLAAGAGLQLVDAVLTGAVQNGLALVRPPGHHGQRAAANGFCVFNNVAIAAAHAKQKHGLHRILVVDWDVHHGQGIQYLFEDDPSVLYFSWHRYEHGRFWPFLRESDADAVGRGQGLGFTVNLPWNQVGMGNADYVAAFLHLLLPLAFEFDPELVLVSAGFDSAIGDPEGQMQATPECFAHLTQLLQVLAGGRVCAVLEGGYHLESLAESVCMTVQTLLGDPAPPLSGPMAPCQSALESIQSARAAQAPHWKSLQQQDVTAVPMSPSSHSPEGRPPPLLPGGPVCKAAASAPSSLLDQPCLCPAPSVRTAVALTTPDITLVLPPDVIQQEASALREETEAWARPHESLAREEALTALGKLLYLLDGMLDGQVNSGIAATPASAAAATLDVAVRRGLSHGAQRLLCVALGQLDRPPDLAHDGRSLWLNIRGKEAAALSMFHVSTPLPVMTGGFLSCILGLVLPLAYGFQPDLVLVALGPGHGLQGPHAALLAAMLRGLAGGRVLALLEENSTPQLAGILARVLNGEAPPSLGPSSVASPEDVQALMYLRGQLEPQWKMLQCHPHLVA
notes: full-length, residues 2–669, MBP fusion
B2 was tested, and the kcat ([2]; 50.0 °C) was 0.1 ± 0.02 s⁻¹, the kcat/Km ([2]; 50.0 °C) was 620 ± 50 M⁻¹ s⁻¹ and the Km ([2]; room temperature) was 160 ± 40 µM. The kcat ([3]; 50.0 °C) was 0.14 ± 0.02 s⁻¹, the kcat/Km ([3]; 50.0 °C) was 1300 ± 200 M⁻¹ s⁻¹ and the Km ([3]; room temperature) was 110 ± 20 µM. For the same protein, the kcat ([4]; 50.0 °C) was 0.35 ± 0.04 s⁻¹, the kcat/Km ([4]; 50.0 °C) was 2100 ± 300 M⁻¹ s⁻¹ and the Km ([4]; room temperature) was 170 ± 50 µM. It also gave a kcat ([5]; 50.0 °C) of 0.28 ± 0.02 s⁻¹, a kcat/Km ([5]; 50.0 °C) of 2900 ± 200 M⁻¹ s⁻¹ and a Km ([5]; room temperature) of 100 ± 10 µM. For the same protein, the kcat ([6]; 50.0 °C) was 0.14 ± 0.08 s⁻¹, the kcat/Km ([6]; 50.0 °C) was 900 ± 300 M⁻¹ s⁻¹ and the Km ([6]; room temperature) was 150 ± 90 µM. It also gave a kcat ([7]; 50.0 °C) of 0.011 ± 0.002 s⁻¹, a kcat/Km ([7]; 50.0 °C) of 60 ± 10 M⁻¹ s⁻¹ and a Km ([7]; room temperature) of 180 ± 20 µM. For the same protein, the Km [8] was 60 ± 20 µM, the kcat [8] was 0.0006 ± 0.0001 s⁻¹ and the kcat/Km [8] was 11 ± 3 M⁻¹ s⁻¹. It also gave a Km [9] of 140 ± 40 µM, a kcat [9] of 0.0092 ± 0.0008 s⁻¹ and a kcat/Km [9] of 66 ± 5 M⁻¹ s⁻¹. For the same protein, the Km [10] was 10 ± 1 µM, the kcat [10] was 0.00038 ± 2e-05 s⁻¹ and the kcat/Km [10] was 38 ± 2 M⁻¹ s⁻¹.
